# Test results from patent publication CN116265487A.
# Target: 重组蛋白hVEGF-Fc (human)
# Assay: cell-based or functional assay
# 重组蛋白hVEGF-Fc (human), sequence (chain, as listed by the source limits assumed): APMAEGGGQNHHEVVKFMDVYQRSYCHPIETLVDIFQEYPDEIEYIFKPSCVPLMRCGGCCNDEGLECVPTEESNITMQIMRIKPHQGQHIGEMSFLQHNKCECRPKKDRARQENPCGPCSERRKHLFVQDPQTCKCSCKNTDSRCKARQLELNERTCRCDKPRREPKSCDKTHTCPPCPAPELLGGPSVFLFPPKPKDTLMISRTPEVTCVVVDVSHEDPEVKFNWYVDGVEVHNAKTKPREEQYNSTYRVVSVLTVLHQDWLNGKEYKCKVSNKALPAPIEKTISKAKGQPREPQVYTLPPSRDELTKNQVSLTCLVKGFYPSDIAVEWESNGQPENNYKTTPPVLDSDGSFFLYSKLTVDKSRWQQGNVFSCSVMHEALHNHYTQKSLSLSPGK
substance,measurement,value
Faricimab (bispecific antibody),中和VEGF活性IC 50,0.582 nM
